{
  "source": "paper PMC9071432",
  "molecular_target": "sg-Tu-Ts_dCC (Escherichia coli) (UniProt P0A6P1+P0CE48)",
  "sequence (P0A6P1 whole entry, chain 1 of 2)": "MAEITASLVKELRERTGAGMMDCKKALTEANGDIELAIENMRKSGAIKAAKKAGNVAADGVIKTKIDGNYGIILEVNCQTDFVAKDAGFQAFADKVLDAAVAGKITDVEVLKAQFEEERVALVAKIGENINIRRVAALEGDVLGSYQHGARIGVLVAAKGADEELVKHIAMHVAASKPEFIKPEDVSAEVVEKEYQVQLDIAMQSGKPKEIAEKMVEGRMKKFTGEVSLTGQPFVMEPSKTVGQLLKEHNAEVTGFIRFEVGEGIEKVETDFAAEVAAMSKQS",
  "sequence (P0CE48 whole entry, chain 2 of 2)": "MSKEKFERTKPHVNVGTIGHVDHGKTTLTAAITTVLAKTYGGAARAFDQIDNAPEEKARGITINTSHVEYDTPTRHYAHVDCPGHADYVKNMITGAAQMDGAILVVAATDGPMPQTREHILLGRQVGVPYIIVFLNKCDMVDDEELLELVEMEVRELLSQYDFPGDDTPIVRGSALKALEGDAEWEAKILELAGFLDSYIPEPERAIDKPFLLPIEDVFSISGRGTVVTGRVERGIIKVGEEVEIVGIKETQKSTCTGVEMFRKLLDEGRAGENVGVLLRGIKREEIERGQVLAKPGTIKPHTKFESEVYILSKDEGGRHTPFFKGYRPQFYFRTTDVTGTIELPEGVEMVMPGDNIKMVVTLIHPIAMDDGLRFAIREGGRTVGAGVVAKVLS",
  "assay": "EMSA",
  "conditions": "10 mM Mg2+; printed >>30; none (in vitro transcript); EMSA: 50 mM Tris-Cl pH 7.4, 10 mM MgCl2, 50 mM NaCl, 10 mM b-ME, 10% glycerol, 37C 10 min, gel at ~25C; pull-down: Tu-GTP preincubated in 50 mM Tris-Cl pH 7.0 …",
  "data": [
    {"sequence": "UGGGGUAUCGCCAAGCGGUAAGGCACCGGAUUCUGAUUCCGGCAUUCCGAGGUUCGAAUCCUCGUACCCCAGCCA [tRNAGln transcript (U1-A72, wt), uncharged]", "values": [
      {"measurement": "Kd", "result": "> 30", "unit": "µM"}
    ]}
  ]
}
